Residue numbers refer to the chain shown, from its start.
B1: TCN-555 (5246_L16) (antibody, V domains shown)
VH: QVQLVQSGAEVKRPGSSVKVSCTASGGIFRKNAISWVRQAPGQGLEWMGGIIAVFNTANYAQKFQNRVKITADESGNTAYMELSSLTSDDTAVYYCASHPKYFYGSGSYPDFWGQGTLVTVSS
VL: QSALTQPRSVSGSPGQSITISCTGGSSDIGASNSVSWYQQHPGKAPKLVIFDVTERPSGVPHRFSGSKSGNTASLTVSGLQPDDEADYFCCAYGGKYLVVFGGGTKVTVL
B2: TCN-563 (5237_B21) (antibody, V domains shown)
VH: B1 VH with V5A, N66G, T87R
VL: B1 VL with I18V, G25S, I29V, F51Y, D83E
B3: TCN-552 (5249_I23) (antibody, V domains shown)
VH: QVQVVQSGAEVKKPGSSVRVSCQASGGTFMNYAIIWVRRAPGQGLEWMGGIIPVFPTPNYAQMFQGRVTISTDESRSTSFLELTNLRYEDTAVYYCARRIYHGGNSGFDFWGQGTLVTVSS
VL: EIVLTQSPATLSLSPGERATLSCRASQSVGNYLAWYQQKPGQAPRLLIYDSSNRAPGIPARFSGSGSGTDFTLTISSLAPEDFAVYYCQQRSKWPPMYSFGHGTKLEIK
B4: TCN-553 (5261_C18) (antibody, V domains shown)
VH: QVQVVQSGTEVKKPGSSVKVSCQTSGGRFMSYAITWVRQAPGQGLEWMGGIVPVFGTANYAQKFQGRVTITTDDSTRTAYMELSSLRSEDTAVYYCGFRYGSGYGFDSWGQGTLVTVSS
VL: EIVLTQSPGTLSLSPGERATLSCRASQSVSSSYLAWYQKKPGQAPRLLIYGASTRATGIPDRFTGSGSGTDFTLSISRLEPEDFAVYYCQHFGTSVFTFGGGTKVEIK
B5: TCN-539 (5056_A08) (antibody, V domains shown)
VH: QVQLVESGGGVVQPGRSLRLSCAASEITFITYAMHWVRQAPGKGLEWVALISDDGSNKFYADSVKGRFTISRDNSKNTLYLQMNSLRAEDTAAYYCAREGVYFDSGTYRGYFDYWGQETLVTVSS
VL: EIVLTQSPATLSLSPGERATLSCRASQSVSSYLAWYQQKPGQAPRLLIYDASNRATGIPARFSGSGSGTDFTLTISSLEPEDFAVYYCQQRSHWPPITFGQGTRLEIK

biological target: recombinant soluble homotrimeric HA of A/California/4/09 (H1N1) (Influenza A virus A/California/04/2009(H1N1)); assay: HA microarray, BCC supernatant; conditions: remark: other sources report otherwise

| Binder | Trimeric HA Binding: RLU |
| --- | --- |
| B1 | 44900 RLU |
| B2 | 45200 RLU |
| B3 | 35300 RLU |
| B4 | 20300 RLU |

biological target: recombinant soluble homotrimeric HA of A/northern shoveler/California/HKWF115/07 (H6) (Influenza A virus A/northern shoveler/California/HKWF115/2007(H6N1)); assay: HA microarray, BCC supernatant; conditions: remark: other sources report otherwise

| Binder | Trimeric HA Binding: RLU |
| --- | --- |
| B1 | 49500 RLU |
| B2 | 27300 RLU |
| B5 | 814 RLU |
| B3 | 38400 RLU |
| B4 | 21700 RLU |

biological target: recombinant soluble homotrimeric HA of A/Anhui/1/05 (H5N1) (Influenza A virus A/Anhui/1/2005(H5N1)); assay: HA microarray, BCC supernatant; conditions: remark: other sources report otherwise

| Binder | Trimeric HA Binding: RLU |
| --- | --- |
| B1 | 1500 RLU |
| B2 | 9580 RLU |
| B5 | 91 RLU |
| B3 | 4160 RLU |
| B4 | 12600 RLU |

biological target: recombinant soluble homotrimeric HA of A/Indonesia/5/05 (H5N1) (Influenza A virus A/Indonesia/5/2005(H5N1)); assay: HA microarray, BCC supernatant; conditions: remark: other sources report otherwise

| Binder | Trimeric HA Binding: RLU |
| --- | --- |
| B1 | 34500 RLU |
| B2 | 39500 RLU |
| B3 | 43600 RLU |
| B4 | 24400 RLU |

biological target: recombinant soluble homotrimeric HA of A/duck/Yangzhou/02/05 (H8N4) (Influenza A virus A/duck/Yangzhou/02/2005(H8N4)); assay: HA microarray, BCC supernatant; conditions: remark: other sources report otherwise

| Binder | Trimeric HA Binding: RLU |
| --- | --- |
| B1 | 18400 RLU |
| B2 | 46700 RLU |
| B3 | 13100 RLU |
| B4 | 28000 RLU |

biological target: recombinant soluble homotrimeric HA of A/Vietnam/1203/04 (H5N1) (Influenza A virus A/VietNam/1203/2004(H5N1)); assay: HA microarray, BCC supernatant; conditions: remark: other sources report otherwise

| Binder | Trimeric HA Binding: RLU |
| --- | --- |
| B1 | 876 RLU |
| B2 | 4840 RLU |
| B5 | 545 RLU |
| B3 | 2730 RLU |
| B4 | 6560 RLU |

biological target: recombinant soluble homotrimeric HA of A/swine/Ontario/01911-2/99 (H4N6) (Influenza A virus A/Swine/Ontario/01911-2/99 (H4N6)); assay: HA microarray, BCC supernatant; conditions: remark: other sources report otherwise

| Binder | Trimeric HA Binding: RLU |
| --- | --- |
| B2 | 4500 RLU |
| B5 | 1580 RLU |
| B4 | 2580 RLU |

biological target: recombinant soluble homotrimeric HA of A/Netherlands/219/03 (H7N7) (Influenza A virus A/Netherlands/219/03(H7N7)); assay: HA microarray, BCC supernatant; conditions: remark: other sources report otherwise

| Binder | Trimeric HA Binding: RLU |
| --- | --- |
| B1 | 3400 RLU |
| B2 | 7520 RLU |
| B5 | 1700 RLU |
| B3 | 1240 RLU |
| B4 | 1840 RLU |

biological target: recombinant soluble homotrimeric HA of A/chicken/Vietnam/NCVD-016/08 (H5N1) (Influenza A virus A/chicken/Vietnam/NCVD-016/2008(H5N1)); assay: HA microarray, BCC supernatant; conditions: remark: other sources report otherwise

| Binder | Trimeric HA Binding: RLU |
| --- | --- |
| B1 | 22300 RLU |
| B2 | 41000 RLU |
| B5 | 100 RLU |
| B3 | 46200 RLU |
| B4 | 24200 RLU |

biological target: recombinant soluble homotrimeric HA of A/Wisconsin/67/05 (H3N2) (Influenza A virus A/Wisconsin/67/2005(H3N2)); assay: HA microarray, BCC supernatant; conditions: remark: other sources report otherwise

| Binder | Trimeric HA Binding: RLU |
| --- | --- |
| B1 | 9800 RLU |
| B2 | 40800 RLU |
| B5 | 715 RLU |
| B3 | 14800 RLU |
| B4 | 20000 RLU |

biological target: recombinant soluble homotrimeric HA of A/Japan/305/57 (H2N2) (Influenza A virus A/Japan/305/1957(H2N2)); assay: HA microarray, BCC supernatant; conditions: remark: other sources report otherwise

| Binder | Trimeric HA Binding: RLU |
| --- | --- |
| B1 | 2130 RLU |
| B2 | 6610 RLU |
| B5 | 468 RLU |
| B3 | 23800 RLU |
| B4 | 25500 RLU |

biological target: recombinant soluble homotrimeric HA of A/Solomon Islands/3/06 (H1N1) (Influenza A virus A/Solomon Islands/3/2006(H1N1)); assay: HA microarray, BCC supernatant; conditions: remark: other sources report otherwise

| Binder | Trimeric HA Binding: RLU |
| --- | --- |
| B1 | 26400 RLU |
| B2 | 30000 RLU |
| B5 | 239 RLU |
| B3 | 39300 RLU |
| B4 | 16300 RLU |

biological target: recombinant homotrimeric HA A/Solomon Islands/3/06 H1N1 (Influenza A virus A/Solomon Islands/3/2006(H1N1)); assay: protein microarray, purified IgG, trimeric HA; conditions: remark: other sources report otherwise

| Binder | Trimeric HA Binding: RLU |
| --- | --- |
| B1 | 17900 RLU |
| B5 | 1060 RLU |
| B3 | 19400 RLU |
| B4 | 24600 RLU |

biological target: recombinant homotrimeric HA A/California/4/09 H1N1 (Influenza A virus A/California/04/2009(H1N1)); assay: protein microarray, purified IgG, trimeric HA; conditions: remark: other sources report otherwise

| Binder | Trimeric HA Binding: RLU |
| --- | --- |
| B1 | 25500 RLU |
| B5 | 129 RLU |
| B3 | 23900 RLU |
| B4 | 25100 RLU |

biological target: recombinant homotrimeric HA A/northern shoveler/California/HKWF115/07 H6N4 (Influenza A virus A/northern shoveler/California/HKWF115/2007(H6N1)); assay: protein microarray, purified IgG, trimeric HA; conditions: remark: other sources report otherwise

| Binder | Trimeric HA Binding: RLU |
| --- | --- |
| B1 | 15600 RLU |
| B5 | 124 RLU |
| B3 | 8970 RLU |
| B4 | 20200 RLU |

biological target: recombinant homotrimeric HA A/Anhui/1/05 H5N1 (Influenza A virus A/Anhui/1/2005(H5N1)); assay: protein microarray, purified IgG, trimeric HA; conditions: remark: other sources report otherwise

| Binder | Trimeric HA Binding: RLU |
| --- | --- |
| B1 | 6630 RLU |
| B5 | 570 RLU |
| B3 | 4520 RLU |
| B4 | 9030 RLU |

biological target: recombinant homotrimeric HA A/South Carolina/1/18 H1N1 (Influenza A virus A/South Carolina/1/18 (H1N1)); assay: protein microarray, purified IgG, trimeric HA; conditions: remark: other sources report otherwise

| Binder | Trimeric HA Binding: RLU |
| --- | --- |
| B1 | 13700 RLU |
| B5 | 60 RLU |
| B3 | 14200 RLU |
| B4 | 20600 RLU |

biological target: recombinant homotrimeric HA A/Japan/305/57 H2N2 (Influenza A virus A/Japan/305/1957(H2N2)); assay: protein microarray, purified IgG, trimeric HA; conditions: remark: other sources report otherwise

| Binder | Trimeric HA Binding: RLU |
| --- | --- |
| B1 | 10700 RLU |
| B5 | 544 RLU |
| B3 | 24700 RLU |
| B4 | 25700 RLU |

biological target: recombinant homotrimeric HA A/Netherlands/219/03 H7N7 (Influenza A virus A/Netherlands/219/03(H7N7)); assay: protein microarray, purified IgG, trimeric HA; conditions: remark: other sources report otherwise

| Binder | Trimeric HA Binding: RLU |
| --- | --- |
| B1 | 1330 RLU |
| B5 | 161 RLU |
| B3 | 470 RLU |
| B4 | 499 RLU |

biological target: recombinant homotrimeric HA A/Indonesia/5/05 H5N1 (Influenza A virus A/Indonesia/5/2005(H5N1)); assay: protein microarray, purified IgG, trimeric HA; conditions: remark: other sources report otherwise

| Binder | Trimeric HA Binding: RLU |
| --- | --- |
| B1 | 15600 RLU |
| B3 | 23600 RLU |
| B4 | 26000 RLU |

biological target: recombinant homotrimeric HA A/Vietnam/1203/04 H5N1 (Influenza A virus A/VietNam/1203/2004(H5N1)); assay: protein microarray, purified IgG, trimeric HA; conditions: remark: other sources report otherwise

| Binder | Trimeric HA Binding: RLU |
| --- | --- |
| B1 | 26500 RLU |
| B5 | 636 RLU |
| B3 | 27000 RLU |
| B4 | 27200 RLU |

biological target: recombinant homotrimeric HA A/Egypt/3300-NAMRU3/08 H5N1 (Influenza A virus A/Egypt/3300-NAMRU3/2008(H5N1)); assay: protein microarray, purified IgG, trimeric HA; conditions: remark: other sources report otherwise

| Binder | Trimeric HA Binding: RLU |
| --- | --- |
| B1 | 20200 RLU |
| B3 | 20300 RLU |
| B4 | 24600 RLU |

biological target: recombinant homotrimeric HA A/chicken/Vietnam/NCVD-016/08 H5N1 (Influenza A virus A/chicken/Vietnam/NCVD-016/2008(H5N1)); assay: protein microarray, purified IgG, trimeric HA; conditions: remark: other sources report otherwise

| Binder | Trimeric HA Binding: RLU |
| --- | --- |
| B1 | 4420 RLU |
| B5 | 144 RLU |
| B3 | 4300 RLU |
| B4 | 12400 RLU |

biological target: recombinant homotrimeric HA A/Hong Kong/156/97 H5N1 (Influenza A virus A/Hong Kong/156/97 (H5N1)); assay: protein microarray, purified IgG, trimeric HA; conditions: remark: other sources report otherwise

| Binder | Trimeric HA Binding: RLU |
| --- | --- |
| B1 | 13100 RLU |
| B5 | 103 RLU |
| B3 | 16200 RLU |
| B4 | 24000 RLU |

biological target: recombinant homotrimeric HA A/Hong Kong/1073/99 H9N2 (Influenza A virus A/Hong Kong/1073/99 (H9N2)); assay: protein microarray, purified IgG, trimeric HA; conditions: remark: other sources report otherwise

| Binder | Trimeric HA Binding: RLU |
| --- | --- |
| B1 | 3440 RLU |
| B5 | 416 RLU |
| B4 | 6690 RLU |

biological target: recombinant homotrimeric HA A/Hong Kong/2108/03 H9N2 (Influenza A virus A/HK/2108/2003(H9N2)); assay: protein microarray, purified IgG, trimeric HA; conditions: remark: other sources report otherwise

| Binder | Trimeric HA Binding: RLU |
| --- | --- |
| B1 | 302 RLU |
| B5 | 140 RLU |
| B3 | 161 RLU |
| B4 | 172 RLU |

biological target: recombinant homotrimeric HA A/Wisconsin/67/05 H3N2 (Influenza A virus A/Wisconsin/67/2005(H3N2)); assay: protein microarray, purified IgG, trimeric HA; conditions: remark: other sources report otherwise

| Binder | Trimeric HA Binding: RLU |
| --- | --- |
| B1 | 369 RLU |
| B5 | 8850 RLU |
| B3 | 123 RLU |
| B4 | 197 RLU |

— patent publication US20150086555A1
